The target of one series is DDX3wt (Homo sapiens) (UniProt O00571). Nature of the series: filter binding. The note with it: no ATP hydrolysis; 3 mM Mg2+; 50 µg/ml salmon sperm DNA; EMSA: on ice, protein buffer 25 mM Tris-HCl pH 7.5, 0.5 mM DTT, 20% glycerol, 100 mM NaCl plus 5x binding buffer (10% glycerol, 5 mM MgCl2, 2.5 mM EDTA pH 8 …). For orientation: A gel shift assay detects complexes by their altered migration in electrophoresis.

Series [1] addresses DDX3ΔINS del250-259 (Homo sapiens) (UniProt O00571). The series can be described thus: filter binding. Particulars: no ATP hydrolysis; 3 mM Mg2+; 50 µg/ml salmon sperm DNA; EMSA: on ice, protein buffer 25 mM Tris-HCl pH 7.5, 0.5 mM DTT, 20% glycerol, 100 mM NaCl plus 5x binding buffer (10% glycerol, 5 mM MgCl2, 2.5 mM EDTA pH 8 …).

Consider 1 substance from paper PMC3093405, “A Motif Unique to the Human Dead-Box Protein DDX3 Is Important for Nucleic Acid Binding, ATP Hydrolysis, RNA/DNA Unwinding and HIV-1 Replication” (PLoS ONE, 2011).

Sequence of DDX3wt (Homo sapiens) (O00571 whole entry): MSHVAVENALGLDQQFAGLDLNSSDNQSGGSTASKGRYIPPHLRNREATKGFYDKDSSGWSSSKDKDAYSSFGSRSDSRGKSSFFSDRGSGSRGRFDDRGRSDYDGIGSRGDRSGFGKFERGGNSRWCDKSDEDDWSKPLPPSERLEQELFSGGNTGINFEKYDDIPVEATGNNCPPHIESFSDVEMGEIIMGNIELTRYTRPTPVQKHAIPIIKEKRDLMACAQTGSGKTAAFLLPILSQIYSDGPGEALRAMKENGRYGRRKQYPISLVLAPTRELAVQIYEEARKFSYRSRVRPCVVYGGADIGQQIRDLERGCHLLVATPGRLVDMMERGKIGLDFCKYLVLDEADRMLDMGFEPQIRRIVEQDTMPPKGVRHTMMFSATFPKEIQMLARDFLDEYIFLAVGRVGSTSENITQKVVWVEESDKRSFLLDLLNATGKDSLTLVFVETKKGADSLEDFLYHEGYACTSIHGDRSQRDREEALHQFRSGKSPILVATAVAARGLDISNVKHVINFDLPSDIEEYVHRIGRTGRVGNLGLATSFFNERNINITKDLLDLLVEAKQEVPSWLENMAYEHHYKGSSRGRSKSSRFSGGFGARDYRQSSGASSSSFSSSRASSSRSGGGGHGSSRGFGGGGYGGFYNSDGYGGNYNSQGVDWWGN
Sequence of DDX3ΔINS del250-259 (Homo sapiens) (O00571 other isoform, or with tags, fused parts or gaps mutant): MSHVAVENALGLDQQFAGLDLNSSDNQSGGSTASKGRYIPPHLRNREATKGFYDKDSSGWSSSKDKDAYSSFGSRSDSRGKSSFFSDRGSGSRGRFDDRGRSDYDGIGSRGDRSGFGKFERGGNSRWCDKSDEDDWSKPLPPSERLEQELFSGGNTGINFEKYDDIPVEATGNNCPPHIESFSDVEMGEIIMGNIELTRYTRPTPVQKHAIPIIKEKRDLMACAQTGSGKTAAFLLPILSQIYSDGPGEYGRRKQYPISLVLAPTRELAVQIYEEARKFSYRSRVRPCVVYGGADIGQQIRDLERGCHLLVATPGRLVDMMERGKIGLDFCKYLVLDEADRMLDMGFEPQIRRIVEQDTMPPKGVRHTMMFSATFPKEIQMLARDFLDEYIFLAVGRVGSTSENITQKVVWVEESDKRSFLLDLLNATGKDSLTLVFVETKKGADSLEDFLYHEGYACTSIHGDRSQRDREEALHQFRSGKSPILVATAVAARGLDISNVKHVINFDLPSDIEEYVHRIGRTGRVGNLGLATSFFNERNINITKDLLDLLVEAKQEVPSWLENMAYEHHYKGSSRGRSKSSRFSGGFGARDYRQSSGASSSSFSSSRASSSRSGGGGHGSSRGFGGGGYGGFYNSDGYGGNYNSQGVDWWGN

18/36mer dsDNA: in the series with DDX3wt (Homo sapiens), the binding signal (fold (reference affinity)) is 1. Also, the binding signal (fold reduced affinity vs DDX3wt) in series [1] came to 2.1.
